Laboratory results published in US11161912B2, “Heparanase-neutralizing monoclonal antibodies” (Technion Research & Development Foundation Limited, priority 2015, dated 2021).

Tests used:
Raji-luciferase cells = test: Raji-luciferase lymphoma, tail vein inoculation, bone marrow growth by IVIS imaging; format: in vivo, human; details: mAb 600 μg/mouse every other day, IVIS
Method: Tumorigenicity. Luciferase-labelled CAG myeloma (5×10^6) or Raji lymphoma (1×10^6) cells were injected into the tail vein of NOD/SCID mice (n=5). Mice were treated with PG545 (20 mg/kg, once weekly), mAb 9E8 (600 μg/mouse) every other day starting one day following cell inoculation and tumor growth was examined by IVIS imaging. At termination, mice were sacrificed, the backbones were excised, fixed in formalin and following de-calcification with 10% EDTA solution were embedded in paraffin and subjected to histological and immunohistochemical analyses essentially as described (Weissmann et al, 2016, Proc Natl Acad Sci USA 113:704-709). Dose of 25-30 mg/kg (i.e., 500-600 μg mAb/mouse) is typical in cancer restraining experiments (Van Looy T, et al. 2015, Transl Oncol 8(2):112-118).
IVIS imaging. Bioluminescent imaging of the luciferase-expressing tumors was performed with a highly sensitive, cooled charge coupled device (CCD) camera mounted in a light-tight specimen box (IVIS; Xenogen Corp., Waltham, Mass.). Briefly, mice were injected intraperitoneally with D-luciferin substrate at 150 mg/kg, anesthetized and placed onto a stage inside the light-tight camera box, with continuous exposure to isoflurane (EZAnesthesia, Palmer, Pa.). Light emitted from the bioluminescent cells was detected by the IVIS camera system with images quantified for tumor burden using a log-scale color range set at 5×10^4 to 1×10^7 and measurement of total photon counts per second (PPS) using Living Image software (Xenogen) (Weissmann et al, 2016, Proc Natl Acad Sci USA 113:704-709).
FIG. 4A. Raji-luciferase cells (1×10^6) were injected into the tail vein of NOD/SCID mice (n=5). Mice were treated with PG545 (20 mg/kg once a week) starting one day after cell inoculation and IVIS imaging was applied to quantify tumor load. […] NOD/SCID mice (n=5) were inoculated (iv) with Raji-luciferase cells and mice were treated with mAb 9E8 (600 μg/mouse every other day) (FIG. 4C) and tumor growth was evaluated by IVIS imaging (left panels). Quantification of luciferase signals is shown graphically in the right lower panel.

lymphoma cells = test: Lymphoma cell death, propidium iodide FACS; format: cell-based; details: 50 μg/ml, 24 h
Method: FIG. 6A. CAG myeloma. NOD/SCID mice (n=5) were inoculated (iv) with CAG-luciferase cells (5×10^6) and mice were treated with mAb 9E8 (600 μg/mouse every other day). Tumor growth was evaluated by IVIS imaging (left panels). Quantification of luciferase signals is shown graphically in the right panel. Note 2-3 fold decrease in tumor growth by the heparanase-neutralizing mAbs. FIG. 6B. Bone marrow was harvested from C57Bl/6 mice, cells were collected by centrifugation and heparanase activity was determined as described under ‘Materials and Methods’ (left panel). Corresponding bones were fixed in formalin and following de-calcification were subjected to immunostaining applying anti-heparanase antibody (right panel). FIG. 6C. The indicated cell line (0.25×10^6) was treated with antibodies 1453or 9E8 (50 μg/ml) for 24 h. Cells were then washed once with FACS buffer (PBS containing 2% FCS), incubated with Propidium Iodide (PI; 1 μg/ml) for 10 min and analyzed using FACS Cyan ADP system (Beckman Coulter, Inc). PI-positivity indicates a disturbed membrane and cell death.

[1] = tested on: ESb mouse T-lymphoma cells; test: ESb T-lymphoma spontaneous liver metastasis and survival; format: in vivo; details: ESb, mAb 500 μg/mouse every other day, 3 weeks
Method: Lymphoma cells were also inoculated subcutaneously at the right flank of 6-weeks-old NOD/SCID mice (human cell lines) or C57BL/6 mice (E1-4 mouse lymphoma cells) (n=7). Mice were treated with heparanase inhibitors (PG545; SST0001) or neutralizing antibodies and xenografts size was determined by externally measuring the tumors in 2 dimensions using a caliper. At the end of the experiment, mice were sacrificed; tumor xenografts were removed, weighed and fixed for histological and immunohistochemical analyses (Weissmann et al, 2016, Proc Natl Acad Sci USA 113:704-709). ESb mouse T-lymphoma cells (5×10^5) were similarly inoculated subcutaneously into SCID mice and spontaneous metastasis to the liver (Vlodaysky et al., 1983, Cancer Res 43:2704-2711) was examined after 3 weeks of treatment with PG545 or the neutralizing mAb, as described above. All animal experiments were approved by the Animal Care Committee of the Technion, Haifa, Israel.
FIG. 3A. HEK 293 cells were incubated with latent 65 kDa (upper panel) or GS3 constitutively active heparanase (1 μg/ml; third panel) and the indicated mAbs (10 μg/ml). The cell medium was aspirated at the time designated and cell lysates were subjected to immunoblotting applying anti-heparanase antibody (upper and third panels). […] Heparanase-transfected 293 cells were grown with control mouse IgM or mAb 9E8 for two days. Cells were then fixed with methanol and subjected to immunofluorescent staining applying anti heparanase antibody (second panel) or lysed and subjected to immunoblotting applying anti-heparanase antibody (fourth panel). Purified recombinant active heparanase (200 ng) was pre-incubated with control mouse IgM ( ? ), mAb 8A5 ( ? ), mAb 9E8 ( ? ), all at 2 μg/ml, for 2 h in serum-free RPMI medium on ice. The mixture was then applied onto ^35S-labeled ECM-coated dishes and heparanase activity was determined as described above (lower panel). FIG. 3B, C. […] Quantification of the extent of CD45 staining is shown graphically in the lower panel. […]

B1: mAb 9E8: monoclonal IgM raised against KKDC peptide (Lys158-Asn171) of heparanase; VH SEQ ID NO: 7, VL SEQ ID NO: 8 (antibody)
VH: EVKLLESGGGLVQPGGSLKLSCAASGFDFSRYWMSWVRQAPGKGLEWIGEINPDSSTINYTPSLKDKFIISRDNAKNTLYLQMSKVRSEDTALYYCARRGYEGNYAMDYWGQGTSVTVSSESQSFPNVFPLVSCESPLSDKNLVAMGCLAR
VL: DIVMTQAAPSVPVTPGESVSISCRSSKSLLHSNGNTYLYWFLQRPGQSPQLLIYRMSNLASGVPDRFSGSGSGTAFTLRISRVEAEDVGVYYCMQHLEYPFTFGSGTKLEIKRADAAPTVSIFPPSSEQLTSGGASVVCFL
modifications: IgM constant regions
- decrease of Raji cell growth (luciferase signal) (Raji-luciferase cells): 2-3 fold
- lymphoma cell death (PI-positivity) (lymphoma cells): do not elicit lymphoma cell death
- inhibition of liver metastasis (CD45 staining) [1]: 4-5 fold
